From patent US20190144917

T1: C1-NPs: fluorescein-conjugated MMP substrate peptide C1 (FAM-sk-PLGLEEA-GC) coupled to iron oxide nanoparticles (not fully specified)
T1 chain: SKPLGLEEAGC

T2: S2: Biotin-CGPVPLSLVMK(Cy7)eGvndneeGffsar-NH2
T2 chain: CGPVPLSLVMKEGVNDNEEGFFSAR

T3: alternate substrate/reporter peptide eGvndneeGffsarKsRLVGEGC (second substrate RLVGEGC), unmodified
T3 chain: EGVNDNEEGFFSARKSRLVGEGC

T4: alternate substrate/reporter peptide eGvndneeGffsarKsRLVGEGC veiled with DMNPE
T4 chain: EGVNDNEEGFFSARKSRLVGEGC


Legend:
[1] = molecular target: T1, C1-NPs: fluorescein-conjugated MMP …
[2] = molecular target: T2, S2: …
[3] = molecular target: T3, alternate substrate/reporter peptide …
[4] = molecular target: T4, alternate substrate/reporter peptide …

Row | Protein | proteolysis (fluorescence dequenching) [1] | relative proteolysis (Cy7 signal after streptavidin depletion of uncleaved peptide) [2] | proteolysis [3] | proteolysis [4]
1 | recombinant MMP7 (protein) YSLFPNSPKWTSKVVTYRIVSYTRDLPHITVDRLVSKALNMWGKEIPLHFRKVVWGTADIMIGFARGAHGDSYPFDGPGNTLAHAFAPGTGLGGDAHFDEDERWTDGSSLGINFLYAATHELGHSLGMGHSSDPNAVMYPTYGNGDPQNFKLSQDDIKGIQKLYGKRSNSRKK | significantly cleaved by MMP13, 7, 1, and 9 | cleaved efficiently by MMP7 and MMP19 | – | –
2 | plasmin (protein) KVYLSECKTGNGKNYRGTMSKTKNGITCQKWSSTSPHRPRFSPATHPSEGLEENYCRNPDNDPQGPWCYTTDPEKRYDYCDILECEEECMHCSGENYDGKISKTMSGLECQAWDSQSPHAHGYIPSKFPNKNLKKNYCRNPDRELRPWCFTTDPNKRWELCDIPRCTTPPPSSGPTYQCLKGTGENYRGNVAVTVSGHTCQHWSAQTPHTHNRTPENFPCKNLDENYCRNPDGKRAPWCHTTNSQVRWEYCKIPSCDSSPVSTEQLAPTAPPELTPVVQDCYHGDGQSYRGTSSTTTTGKKCQSWSSMTPHRHQKTPENYPNAGLTMNYCRNPDADKGPWCFTTDPSVRWEYCNLKKCSGTEASVVAPPPVVLLPDVETPSEEDCMFGNGKGYRGKRATTVTGTPCQDWAAQEPHRHSIFTPETNPRAGLEKNYCRNPDGDVGGPWCYTTNPRKLYDYCDVPQCAAPSFDCGKPQVEPKKCPGRVVGGCVAHPHSWPWQVSLRTRFGMHFCGGTLISPEWVLTAAHCLEKSPRPSSYKVILGAHQEVNLEPHVQEIEVSRLFLEPTRKDIALLKLSSPAVITDKVIPACLPSPNYVVADRTECFITGWGETQGTFGAGLLKEAQLPVIENKVCNRYEFLNGRVQSTELCAGHLAGGTDSCQGDSGGPLVCFEKDKYILQGVTSWGLGCARPNKPGVYVRVSRFVTWIEGVMRNN | – | – | proteolysis by plasmin | reduced proteolysis by plasmin, which was recovered by UV exposure
3 | recombinant MMP1 (protein) FVLTEGNPRWEQTHLTYRIENYTPDLPRADVDHAIEKAFQLWSNVTPLTFTKVSEGQADIMISFVRGDHRDNSPFDGPGGNLAHAFQPGPGIGGDAHFDEDERWTNNFREYNLHRVAAHELGHSLGLSHSTDIGALMYPSYTFSGDVQLAQDDIDGIQAIYGRSQNPVQ | significantly cleaved by MMP13, 7, 1, and 9 | – | – | –
